Laboratory results taken from patent US20240101645A1 (HENRY M JACKSON FOUNDATION FOR THE ADVANCEMENT OF MILITARY …, published 2024).

T1: HCoV-229E spike antigens (bead panel) (HCoV-229E, UniProt P15423 16-1115)
T1 sequence: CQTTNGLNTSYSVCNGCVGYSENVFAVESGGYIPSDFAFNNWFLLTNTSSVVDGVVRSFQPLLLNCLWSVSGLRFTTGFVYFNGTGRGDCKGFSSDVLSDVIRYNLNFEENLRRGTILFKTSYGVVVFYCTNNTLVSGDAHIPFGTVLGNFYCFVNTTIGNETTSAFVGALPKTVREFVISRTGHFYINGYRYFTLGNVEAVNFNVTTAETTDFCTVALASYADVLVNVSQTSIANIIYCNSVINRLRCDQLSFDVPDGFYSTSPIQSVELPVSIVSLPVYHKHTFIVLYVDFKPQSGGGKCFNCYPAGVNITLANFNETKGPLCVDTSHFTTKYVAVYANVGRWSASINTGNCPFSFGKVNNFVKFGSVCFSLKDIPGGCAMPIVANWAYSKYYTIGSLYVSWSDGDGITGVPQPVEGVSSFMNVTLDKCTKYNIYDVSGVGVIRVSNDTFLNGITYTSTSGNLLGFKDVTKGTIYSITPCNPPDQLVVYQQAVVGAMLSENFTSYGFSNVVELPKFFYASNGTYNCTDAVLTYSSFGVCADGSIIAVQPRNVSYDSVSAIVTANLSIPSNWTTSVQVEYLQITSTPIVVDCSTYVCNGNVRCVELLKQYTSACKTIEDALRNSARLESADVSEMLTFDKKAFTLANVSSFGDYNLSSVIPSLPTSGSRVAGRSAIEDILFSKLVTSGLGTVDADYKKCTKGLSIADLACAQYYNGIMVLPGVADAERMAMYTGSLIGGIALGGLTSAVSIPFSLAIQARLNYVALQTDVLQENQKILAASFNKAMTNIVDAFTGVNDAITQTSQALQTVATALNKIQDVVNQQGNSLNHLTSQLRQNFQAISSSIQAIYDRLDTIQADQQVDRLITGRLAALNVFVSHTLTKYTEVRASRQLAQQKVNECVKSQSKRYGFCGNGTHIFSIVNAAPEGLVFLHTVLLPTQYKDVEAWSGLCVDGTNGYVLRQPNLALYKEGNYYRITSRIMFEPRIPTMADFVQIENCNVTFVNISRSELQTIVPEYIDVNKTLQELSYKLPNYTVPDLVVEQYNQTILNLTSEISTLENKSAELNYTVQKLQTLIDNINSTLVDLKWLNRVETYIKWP

T2: HCoV-HKU1 spike antigens (bead panel) (HCoV-HKU1, UniProt Q5MQD0 13-1300)
T2 sequence: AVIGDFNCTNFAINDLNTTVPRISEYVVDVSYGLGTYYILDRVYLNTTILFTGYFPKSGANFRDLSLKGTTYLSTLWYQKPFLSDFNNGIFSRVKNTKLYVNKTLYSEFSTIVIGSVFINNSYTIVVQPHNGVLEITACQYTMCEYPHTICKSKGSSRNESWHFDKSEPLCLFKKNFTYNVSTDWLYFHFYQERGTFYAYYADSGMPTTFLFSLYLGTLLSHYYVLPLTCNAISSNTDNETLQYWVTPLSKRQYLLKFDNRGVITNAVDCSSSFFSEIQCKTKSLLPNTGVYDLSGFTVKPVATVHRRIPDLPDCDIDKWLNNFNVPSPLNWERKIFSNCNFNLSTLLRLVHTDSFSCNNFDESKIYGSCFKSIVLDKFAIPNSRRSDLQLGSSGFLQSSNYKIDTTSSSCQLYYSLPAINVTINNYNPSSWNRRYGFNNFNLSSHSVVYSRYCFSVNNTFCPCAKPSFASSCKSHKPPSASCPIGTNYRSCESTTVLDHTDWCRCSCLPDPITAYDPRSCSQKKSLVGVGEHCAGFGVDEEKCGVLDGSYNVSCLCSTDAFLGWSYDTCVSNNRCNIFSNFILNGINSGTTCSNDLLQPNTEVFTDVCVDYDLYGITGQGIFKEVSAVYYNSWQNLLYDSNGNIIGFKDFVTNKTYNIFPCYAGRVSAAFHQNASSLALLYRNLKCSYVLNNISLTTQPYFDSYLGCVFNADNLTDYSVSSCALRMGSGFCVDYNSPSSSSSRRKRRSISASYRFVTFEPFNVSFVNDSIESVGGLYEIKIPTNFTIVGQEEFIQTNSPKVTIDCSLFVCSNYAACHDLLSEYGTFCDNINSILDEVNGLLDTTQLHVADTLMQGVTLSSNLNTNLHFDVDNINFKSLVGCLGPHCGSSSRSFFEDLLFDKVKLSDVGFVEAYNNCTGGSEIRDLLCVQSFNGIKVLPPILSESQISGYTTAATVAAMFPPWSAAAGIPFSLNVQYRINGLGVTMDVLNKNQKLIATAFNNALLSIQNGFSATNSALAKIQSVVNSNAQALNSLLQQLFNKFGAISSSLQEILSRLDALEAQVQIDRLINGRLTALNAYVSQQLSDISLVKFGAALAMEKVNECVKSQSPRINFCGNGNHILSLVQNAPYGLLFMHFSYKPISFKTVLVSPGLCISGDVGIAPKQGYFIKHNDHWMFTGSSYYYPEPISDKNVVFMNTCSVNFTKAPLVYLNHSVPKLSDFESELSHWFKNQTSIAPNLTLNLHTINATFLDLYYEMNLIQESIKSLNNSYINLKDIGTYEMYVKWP

B1: COV_2032 (antibody, V domains shown)
VH: EVQLVESGGGLVQPGGSLRLSCAASGFTFTTYWMHWVRQAPGKGLVWVSRIKTDGSSTNYADSVKGRFTISRDNAKNMLYLQMNSLRAEDTAVYYCAREGPVSIVYFDYWGQGTLVTVSS
VL: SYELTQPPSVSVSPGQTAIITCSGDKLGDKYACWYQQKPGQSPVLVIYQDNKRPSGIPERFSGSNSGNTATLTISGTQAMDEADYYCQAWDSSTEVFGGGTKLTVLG
notes: human IgG1
B2: COV_1170 (antibody, V domains shown)
VH: QVQLVESGGGVVQPGRSLRLSCAASGFTFSTYAMHWVRQAPGKGLEWVALISYDGSNKYYADSVKGRFTISRDNSKNTLDLQMNSLRAEDTAVYYCARSLGGYRTGFDYWGQGTLVTVSS
VL: DIQLTQSPSFLSASVGDRVTITCRASQGISSYLAWYQQKPGKAPKLLIYAASTLQSGVPSRFSGSGSGTEFTLTISSLQPEDFATYYCQQLNSYPPFTFGPGTKVDIKR
notes: human IgG1
B3: COV_1166 (antibody, V domains shown)
VH: EVQLVESGGGLVQPGGSLRLSCAVSGFTFRSFWMSWVRQTPGKGLEWVANIKEDGSEKYYVDSVKGRFTISRDNAKNSLYLQMNSLRAEDTAVYYCAREGRWELLGFAFDIWGQGTMVTVSS
VL: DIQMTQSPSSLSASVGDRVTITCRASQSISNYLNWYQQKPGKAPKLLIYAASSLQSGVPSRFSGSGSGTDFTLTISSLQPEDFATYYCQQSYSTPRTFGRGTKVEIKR
notes: human IgG1
B4: COV_1172 (antibody, V domains shown)
VH: QVQLQESGPGLVKPSETLSLTCTVSGGSIRSYYWSWIRQPPGKGLEWIGYIYYSGSTNYSPSLKSRVTISVDTSKNQFSLKLNSVTAADTAVYYCARRGLGYCSGDSCSNAFDIWGQGTMVTVSS
VL: DIQMTQSPSSLSASVGDRVTITCRASQSISSYLNWYQQKPGRAPELLIYDASSLQSGVPSGFSGSGSGTDFTLTISSLQPEDFATYYCQQSYSTPFTFGPGTKVDIKR
notes: human IgG1
B5: COV_1151 (antibody, V domains shown)
VH: QVQVQQWGAGLLKPSETLSLTCAVYGGSFNNYYWSWIRQPPGKGLEWIGEINHSGSTNYNPSLMSRVTISVDTSKNQFSLKLTSVTAADTAVYFCARGLPVTTFFSSYYGMDVWGQGTTVTVSS
VL: EIVLTQSPGTLSLSPGERATLSCRASQSVSRTYLAWYQQKPGQAPRLLIYGASSRATGIPDRFSGSGSGTDFTLTISRLEPEDFAVYYCQHYGSSPWTFGQGTKVEIRR
notes: human IgG1
B6: COV_1025 (antibody, V domains shown)
VH: QVQLVESGGGVVQPGRSLRLSCAASGFTFNTYAMHWVRQAPGKGLEWVAIISYDGGNKYYADSMKGRFTISRDNSKNTLYLQMNSLRAEDTAVYYCARARTGNYYYGMDVWGQGTTVTVSS
VL: not shown
notes: human IgG1
B7: COV_2123 (antibody, V domains shown)
VH: EVQLVESGGGVVQPGRSLRLSCAASGFTFSSYAMHWVRQAPGKGLEWVAVLSYDGSNKYNADSVKGRFTISRDNSKNTLYLQMNSLRVEDTAMYYCARDGVSVTMVRGVIGPLCDYWGQGTLVTVSS
VL: not shown
notes: human IgG1
B8: COV_1144 (antibody, V domains shown)
VH: EVQLVESGGGLVQPGGSLRLSCAASGFTFRSFWMSWVRQAPGKGLEWVANIKEDASEKHYVDPVKGRFTISRDNAKNSLYLQLNSLRAEDMAVYYCARVGRGYCTNGLCYTAFEYWGQGTLVTVSS
VL: DIQMTQSPSSLSASVGDRVTITCRTSQSISNYLNWYQQKPGKAPKLLIYAASSLQSGVPSRFSGSGSGTDFTLTISSLQPEDFATYYCQQSYSTAWTFGQGTKVEIRR
notes: human IgG1

Columns and labels:
[1] = molecular target: T1, HCoV-229E spike antigens (bead panel); experiment: multiplex bead assay
[2] = molecular target: T2, HCoV-HKU1 spike antigens (bead panel); experiment: multiplex bead assay
[3] = molecular target: SARS-CoV-2 S on pseudovirions (Wuhan Hu-1 / IL1/2020, last 18 amino acids removed) (SARS-CoV-2, UniProt P0DTC2 14-1273); experiment: cell-based or functional assay

Row | Binder | binding result [1] | binding result [2] | Mean IC50, pSV neutralization [3] | Mean IC80, pSV neutralization [3]
1 | B1 | no binding | no binding |  | 
2 | B2 | no binding | no binding | 0.2 µg/ml | ≥ 25 µg/ml
3 | B3 | no binding | no binding | ≥ 25 µg/ml | ≥ 25 µg/ml
4 | B4 | no binding | no binding | ≥ 25 µg/ml | ≥ 25 µg/ml
5 | B5 | no binding | no binding | ≥ 25 µg/ml | ≥ 25 µg/ml
6 | B6 | no binding | no binding |  | 
7 | B7 |  | no binding |  | 0.03 µg/ml
8 | B8 | no binding | no binding | ≥ 25 µg/ml | ≥ 25 µg/ml
